In article PMC7173237:

Biological target: West Nile virus (Kunjin subtype, strain MRM61C) core (C) protein, trypsin-cleaved fragment Val23-Arg98 (Kunjin virus (strain MRM61C))
Test: crystal structure

## West Nile virus (Kunjin subtype, strain MRM61C) core (C) protein, trypsin-cleaved fragment Val23-Arg98 (domain or fragment)
  stoichiometry N: 4
